Results as given in paper PMC9474600 (Immunity, 2022).

Target: Recombinant soluble HA trimer of A/New Caledonia/20/1999 (H1N1 NC99) (Influenza A virus A/New …, strain)
Assay: cryo-EM structure

Binder	binding result
310-39G10 Fab (Fab, V domains shown) VH: QVQLVQSGAEVKKPGSSVKVSCKASGGTFSRYTISWVRQAPGQGLEWMGRISPIAGLENYAQKFQGRVTITADISTSTAYMELSSLRSDDTAVYYCAGSSGYYQPPPYWGQGTLVTVSS VL: EIVLTQAPFSLSLSPGERATLSCRASQSVSSSSLAWYHQKPGQAPRLLIYGASSRATGIPDRFSGSGSGTDFTLTISRLEPEDFSLYYCQQYGSSPLTFGQGTRLEIK	binds
310-63E6 Fab (Fab, V domains shown) VH: QVQLVQSGAEVKKPGSSVKVSCTASGGTFSTYQFSWVRQAPGQGLEWMGRIVPIQGMDYAQKFRGRVTITADKWTSTVYMEVTSLRSEDTAVYYCATSRSMYFYYQLDVWGRGTTVTVSS VL: EIVLTQSPGTLSLSPGERATVSCRASQSVTSTFLAWYQQRPGQAPRLLIYGASSRATGIPDRFSGSGSEADFTLTINRLEPEDFAVYYCQQYATSPWTFGQGTKVEIK	binds
